{"source": "patent US20040018199A1", "key": {"Cadherin 11 (human)": {"molecular_target": "Cadherin 11 (human) (UniProt P55287)", "sequence (P55287 154-796 limits assumed, form in doubt)": "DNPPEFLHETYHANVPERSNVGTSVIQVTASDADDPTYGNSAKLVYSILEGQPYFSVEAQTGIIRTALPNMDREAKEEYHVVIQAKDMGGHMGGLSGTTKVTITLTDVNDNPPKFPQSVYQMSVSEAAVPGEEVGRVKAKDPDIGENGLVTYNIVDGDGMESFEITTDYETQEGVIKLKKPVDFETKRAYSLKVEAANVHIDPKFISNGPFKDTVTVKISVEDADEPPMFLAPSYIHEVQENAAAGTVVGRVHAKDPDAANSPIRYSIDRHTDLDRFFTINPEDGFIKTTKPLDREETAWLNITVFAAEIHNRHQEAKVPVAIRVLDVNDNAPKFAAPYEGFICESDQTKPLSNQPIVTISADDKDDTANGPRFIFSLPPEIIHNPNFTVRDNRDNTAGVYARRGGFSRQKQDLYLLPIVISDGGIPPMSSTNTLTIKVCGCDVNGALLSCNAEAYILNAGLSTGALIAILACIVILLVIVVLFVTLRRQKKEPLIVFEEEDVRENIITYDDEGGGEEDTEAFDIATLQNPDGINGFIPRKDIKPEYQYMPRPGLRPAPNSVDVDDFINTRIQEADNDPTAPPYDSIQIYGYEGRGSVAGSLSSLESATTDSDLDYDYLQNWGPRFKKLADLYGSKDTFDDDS", "experiment": "yeast two-hybrid (PathCalling)"}, "[1]": {"molecular_target": "Prey 2832217 protein (C11orf15 protein) (human) (UniProt Q9NQ34)", "sequence (Q9NQ34 35-167 limits assumed, form in doubt)": "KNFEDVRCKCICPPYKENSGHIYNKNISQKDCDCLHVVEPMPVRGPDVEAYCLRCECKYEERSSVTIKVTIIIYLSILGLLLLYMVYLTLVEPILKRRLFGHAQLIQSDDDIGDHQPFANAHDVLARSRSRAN", "experiment": "yeast two-hybrid (PathCalling)"}, "Lumican (human)": {"molecular_target": "Lumican (human) (UniProt P51884)", "sequence (P51884 217-338 limits assumed, form in doubt)": "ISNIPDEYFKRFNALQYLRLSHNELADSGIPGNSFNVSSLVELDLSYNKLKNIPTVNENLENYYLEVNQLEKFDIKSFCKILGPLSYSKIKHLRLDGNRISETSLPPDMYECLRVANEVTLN", "experiment": "yeast two-hybrid (PathCalling); forty-eight independent experiments"}}}
{"substance": "CG54020 (EPHA8), ephrin type-A receptor 8 (from UniProt P29322 28-207)", "values": [{"measurement": "interaction rating score", "setting": "Cadherin 11 (human)", "value": 2.7}, {"measurement": "interaction rating score", "setting": "[1]", "value": 9.6}, {"measurement": "interaction rating score", "setting": "Lumican (human)", "value": 9.99}]}
